The target of assay [1] is T1, human aP2 (fatty acid-binding protein, adipocyte, FABP4/aP2) (human, UniProt P15090 1-132, Biotinylated with Sulfo-NHS-LC-Biotin in the Octet assay. Refolded with palmitic acid after delipidation. The letters carry neither.).
T1 construct: also called haP2; human FABP4
In words: method not stated in the sentence (FIG. 31); average binding affinity; PB1172, human aP2.

Assay [2] has as its target T2, mouse aP2 (fatty acid-binding protein, adipocyte, FABP4/aP2) (mouse, UniProt P04117 1-132).
T2 construct: Lipid-loaded and de-lipidated preparations are the same polypeptide and are told apart under assay; also called mouse FABP4; murine aP2
T2 sequence: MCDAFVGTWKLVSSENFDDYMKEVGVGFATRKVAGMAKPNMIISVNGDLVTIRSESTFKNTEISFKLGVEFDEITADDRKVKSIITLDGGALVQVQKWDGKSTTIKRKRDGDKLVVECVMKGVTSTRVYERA
In words: method not stated in the sentence (FIG. 31); average binding affinity; PB1172, mouse aP2.

Assay [3] deals with T1, human aP2 (fatty acid-binding protein, …). In words: assay not given; KD (M) column under 'Human', first of two rows (also printed as 5.62 under KD (µM)).
The target of assay [4] is T2, mouse aP2 (fatty acid-binding protein, …). In words: assay not given; KD (M) column under 'Mouse', first of two rows (also printed as 4.14 under KD (µM)).
In assay [5] the target is T1, human aP2 (fatty acid-binding protein, …). In words: assay not given; KD (M) column under 'Human', second of two rows (also printed as 6.44 under KD (µM)).
Assay [6] addresses T2, mouse aP2 (fatty acid-binding protein, …). In words: assay not given; KD (M) column under 'Mouse', second of two rows (also printed as 4.99 under KD (µM)).
Assay [7] addresses T3, recombinant human FABP5/Mal1 (human, UniProt Q01469 1-135).
T3 construct: Bought; Biotinylated and loaded on streptavidin biosensors; also called hFABP5/hMal1; Mal1/FABP5
In words: Octet RED384: biotinylated human FABP5/Mal1 on streptavidin biosensors, maximal association signal minus background. On the procedure:
The recombinant human proteins aP2 (generated at UCB in E. coli (see method below)), hFABP3 (Sino Biological Inc.) and hFABP5/hMal1 (Sino Biological Inc.) were biotinylated in a 5-fold molar excess of EZ-Link® Sulfo-NHS-LC-Biotin (Thermo Fisher Scientific) and purified from unbound biotin using a Zeba desalting column (Thermo Fisher Scientific). All binding studies were performed at 25° C. using a ForteBio Octet RED384 system (Pall ForteBio Corp.). After a 120 s baseline step in PBS containing 0.05% Tween 20, pH7.4 (PBS-T), Dip and Read™ streptavidin (SA) biosensors (Pall ForteBio Corp.) were loaded with biotinylated recombinant haP2, hFABP3 or hFABP5/hMal1 at 60 nM for 90 s. After a 60 s stabilisation step in PBS-T, each FABP-loaded biosensor was transferred to a sample of monoclonal antibody at 800 nM and association was measured for 5 min. Biosensors were then transferred back to PBS-T for 5 min to measure dissociation. Non-specific binding of antibodies was monitored using unloaded biosensor tips. Maximal association binding i.e., once signal had plateaued, minus background binding, was plotted for each antibody/FABP combination.
In general terms: Biolayer interferometry detects binding as a change in optical thickness at a sensor tip.

Assay [8] has as its target T1, human aP2 (fatty acid-binding protein, …). In words: SPR, Biacore T200: antibody captured on immobilized anti-mouse IgG Fc, aP2 titrated 25 to 3.13 nM, 1:1 binding model. On the procedure: (§1) The affinity of anti-aP2 binding to aP2 (recombinantly generated in E. coli as described below) was determined by biomolecular interaction analysis, using a Biacore T200 system (GE Healthcare). Affinipure F(ab′)2 fragment goat anti-mouse IgG, Fc fragment specific (Jackson ImmunoResearch Lab, Inc.) in 10 mM NaAc, pH 5 buffer was immobilized on a CMS Sensor Chip via amine coupling chemistry to a capture level between 4500-6000 response units (RU) using HBS-EP+(GE Healthcare) as the running buffer. Anti-aP2 IgG was diluted to between 1-10 μg/ml in running buffer. A 60 s injection of anti-aP2 IgG at 10 μl/min was used for capture by the immobilized anti-mouse IgG, Fc then aP2 was titrated from 25 nM to 3.13 nM over the captured anti-aP2 for 180 s at 30 μl/min followed by 300 s dissociation. The surface was regenerated by 2×60 s 40 mM HCl and 1×30 s 5 mM NaOH at 10 μl/min. The data were analyzed using Biacore T200 evaluation software (version 1.0) using the 1:1 binding model with local Rmax. […] The surface was regenerated by 1×60 s 40 mM HCl, 1×30 s 5 mM NaOH and 1×60 s 40 mM HCl at 10 μl/min. Steady state fitting was used to determine affinity values.

In assay [9] the target is T2, mouse aP2 (fatty acid-binding protein, …). In words: method not stated in the sentence (FIG. 31); average binding affinity; PB1171, mouse aP2.
Assay [10] has the same target. In words: assay not given; KD (M) column under 'Mouse', first of two rows (also printed as 5.53 under KD (µM)).
Assay [11] has the same target. In words: assay not given; KD (M) column under 'Mouse', second of two rows (also printed as 4.71 under KD (µM)).
The target in assay [12] is T1, human aP2 (fatty acid-binding protein, …). In words: SPR, Biacore T200: antibody captured on immobilized anti-mouse IgG Fc, aP2 titrated 40 to 0.625 µM, steady state fit. On the procedure: as §1
For orientation: SPR reads the build-up and loss of mass on a sensor chip optically.

Positions count from the first letter of the chain named. Names and notes keep the numbering of the source.

T3 sequence (Q01469 whole entry): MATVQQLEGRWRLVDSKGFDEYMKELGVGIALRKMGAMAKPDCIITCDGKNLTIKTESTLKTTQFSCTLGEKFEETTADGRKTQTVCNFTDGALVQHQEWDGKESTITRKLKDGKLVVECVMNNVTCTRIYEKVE

B1: PB1172 (H3 gL11/gH19), reduced-affinity variant of H3 (antibody, mouse IgG1, V domains shown)
VH: QVQLQQPGAELVKPGASVKLSCKASGYTFTSNAITWVKQRPGQGLEWIGDISPGSGSTTNNEKFKSKATLTVDTSSSTAYMQLSSLTSEDSAVYYCARLRGYYDYFDFWGQGTTLTVSS
VL: EVVLTQSPALMAASPGEKVTITCSVSSSISSSNLHWYQQKSETSPKPWIYGTSNLASGVPVRFSGSGSGTSYSLTISSMEAEDAATYYCQQASHYPLTFGAGTKLELK
notes: Heavy chain W33A, Y52S; light chain W91A, relative to H3; also called 5251.mIgG1168; APP5168/PB1172
As usually defined, the Kd is the concentration at which binding is half-saturated. Lower therefore signals tighter binding. Regarding B1, the dissociation constant (Kd) in [1] stood at 6.03 µM; in assay [2] it was 4.57 µM; in [3] it was 5.62 µM; in assay [4], 4.14 µM; in assay [5], 6.44 µM; in [6], 4.99 µM.

B2: H3, mouse anti-aP2 monoclonal antibody (H3 gL1/gH1) (antibody, V domains shown)
VH: B1 VH with A33W, S52Y
VL: B1 VL with A92W
notes: Mouse IgG; also called wild-type parent H3
B2: the binding result in assay [7] is on record as “no binding”. This molecule also yielded a Kd in assay [8] of 0.0011 µM.

B3: PB1171 (H3 gL1/gH20), reduced-affinity variant of H3 (antibody, mouse IgG1, V domains shown)
VH: B1 VH with Y102F
VL: B1 VL with A92W
notes: Heavy chain W33A, Y52S, Y98F relative to H3; also called 5252.mIgG1.169; APP5169/PB1171
Consider B3, for which the Kd in assay [9] amounted to 5.12 µM; in assay [10], 5.53 µM; in [11], 4.71 µM.

B4: CA33, rabbit-mouse hybrid anti-aP2 monoclonal antibody (Rabbit Ab 909) (antibody, V domains shown)
VH: QSVEESGGRLVTPGTPLTLTCTVSGFSLSTYYMSWVRQAPGKGLEWIGIIYPSGSTYCASWAKGRFTISKASTTVDLKITSPTTEDTATYFCARPDNDGTSGYLSGFGLWGQGTLVTVSS
VL: DVVMTQTPASVSEPVGGTVTIKCQASEDISRYLVWYQQKPGQPPKRLIYKASTLASGVPSRFKGSGSGTDFTLTISDLECDDAATYYCQCTYGTYAGSFFYSFGGGTEVVVE
notes: also called Rabbit Antibody 909
In the case of B4, in [7], the binding result is “no binding”. The same molecule yielded a Kd in [12] of 2.83 µM.

For the origin of these results see patent US20220089705A1 (Harvard, published 2022).
